Assay [1] addresses Noggin (residues 28-232) (human (from the UniProt entry Q13253)) (UniProt Q13253). Description: BLI; biotinylated Noggin (4 ug/mL) immobilised on streptavidin-coated biosensors, BMP-2 1 to 22.8 nM in solution; 30 °C; 50 mM sodium citrate pH 6.8, 150 mM NaCl, 1 mM magnesium acetate, 0.02% CHAPS; 1:1 interaction model; three repetitions. (In general: BLI is a label-free optical method that tracks binding on a fibre tip over time.)

The target in assay [2] is T1, Bone morphogenetic protein 2 (BMP-2), wild type, mature form (human).
T1 sequence (P12643 whole entry, looked up): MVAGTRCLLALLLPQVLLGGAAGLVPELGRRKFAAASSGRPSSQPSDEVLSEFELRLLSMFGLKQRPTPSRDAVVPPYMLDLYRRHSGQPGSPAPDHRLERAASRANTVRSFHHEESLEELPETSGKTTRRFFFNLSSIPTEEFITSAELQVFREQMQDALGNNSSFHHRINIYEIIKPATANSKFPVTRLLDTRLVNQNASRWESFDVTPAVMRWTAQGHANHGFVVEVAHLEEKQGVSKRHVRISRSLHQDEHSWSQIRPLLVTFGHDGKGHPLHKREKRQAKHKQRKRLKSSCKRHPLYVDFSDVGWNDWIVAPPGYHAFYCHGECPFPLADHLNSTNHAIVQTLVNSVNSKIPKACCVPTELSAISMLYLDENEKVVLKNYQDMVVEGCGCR
Description: SDS-PAGE under reducing and nonreducing conditions; purified, refolded protein on 4 to 20% SDS-PAGE, Coomassie blue; covalent (disulphide) dimer.

For assay [3], the target named is BMP-2 N102D mutant, mature form (human). The description is as above.
For assay [4], the target named is Noggin (Homo sapiens) (UniProt Q13253). Put plainly: SPR. The settings on record: cited from earlier work.
Chain of Noggin (Homo sapiens) (Q13253 28-232): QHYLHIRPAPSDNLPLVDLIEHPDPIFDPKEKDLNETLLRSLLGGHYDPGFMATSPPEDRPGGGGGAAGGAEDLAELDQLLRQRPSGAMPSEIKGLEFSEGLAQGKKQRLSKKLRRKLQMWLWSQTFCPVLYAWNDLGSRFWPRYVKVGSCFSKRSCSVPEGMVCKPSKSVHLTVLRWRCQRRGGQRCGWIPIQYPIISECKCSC

Chain of Noggin (residues 28-232) (human (Q13253 other isoform, or with tags, fused parts or gaps): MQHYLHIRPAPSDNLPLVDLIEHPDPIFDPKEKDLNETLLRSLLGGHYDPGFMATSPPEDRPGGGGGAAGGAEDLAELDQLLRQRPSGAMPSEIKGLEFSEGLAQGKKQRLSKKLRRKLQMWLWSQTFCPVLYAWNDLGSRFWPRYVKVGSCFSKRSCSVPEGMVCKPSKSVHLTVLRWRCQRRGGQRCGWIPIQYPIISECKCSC

The term Kd denotes the equilibrium constant for the complex coming apart. Usually koff stands for a measure of how fast the partners let go of each other. The low end stands for a long-lived complex, the high end for a short-lived complex. By kon is commonly meant the second-order rate constant of association. Low values mean slower complex formation, high ones faster complex formation. What is called stoichiometry N is the number of molecules, sites or subunits per partner or assembly. In assay [1], “Bone morphogenetic protein 2 (BMP-2), wild type, mature form (ligand)” displayed a Kd of 0.36 nM, a koff of 0.00042 s⁻¹, a kon of 1.2e+06 M⁻¹ s⁻¹ and a stoichiometry N of 1. This substance also showed a stoichiometry N in assay [2] of 2.
As for “BMP-2 N102D mutant, mature form (ligand)”, in assay [1], the Kd amounted to 0.3 nM, the koff came out at 0.0007 s⁻¹ and the kon turned out to be 2.3e+06 M⁻¹ s⁻¹. The substance also showed a stoichiometry N in assay [3] of 2.
Consider BMP-2 (from UniProt P12643), for which the Kd in assay [4] was 0.6 nM.
